Here are results for six molecules from US20160369011A1 (EISAI R AND D MANAGEMENT, published 2016).

Assay [1] has as its target T1, human CD73 (human, UniProt P21589 27-547, limits assumed).
T1 construct: also called control antigen
T1 sequence (looked up): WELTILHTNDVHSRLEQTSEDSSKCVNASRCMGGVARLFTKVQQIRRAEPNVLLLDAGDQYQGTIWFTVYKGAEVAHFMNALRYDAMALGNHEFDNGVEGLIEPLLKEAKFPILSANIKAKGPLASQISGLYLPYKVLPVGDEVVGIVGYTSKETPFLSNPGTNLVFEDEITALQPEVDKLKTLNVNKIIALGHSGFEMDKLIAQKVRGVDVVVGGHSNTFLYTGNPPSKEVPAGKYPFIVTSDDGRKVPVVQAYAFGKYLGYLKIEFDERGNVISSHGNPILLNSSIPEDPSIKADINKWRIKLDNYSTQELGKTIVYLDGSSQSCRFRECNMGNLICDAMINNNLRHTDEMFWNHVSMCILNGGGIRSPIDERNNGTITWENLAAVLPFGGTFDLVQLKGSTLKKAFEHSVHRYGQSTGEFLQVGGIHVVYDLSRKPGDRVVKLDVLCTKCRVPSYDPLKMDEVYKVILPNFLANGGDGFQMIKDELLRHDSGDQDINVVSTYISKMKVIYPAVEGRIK
Kind of assay: ELISA, B cell culture supernatant, 2nd screening. A general note: An ELISA detects its analyte on a solid surface through an enzyme-linked reagent.

In assay [2] the target is T2, human MSLN (mesothelin) (human, UniProt Q13421 296-598).
T2 construct: The construct coated on the plates is not described; also called human mesothelin
Kind of assay: ELISA on human MSLN, B cell culture supernatant, 1st screening.

Assay [3] concerns the target T2, human MSLN (mesothelin). Kind of assay: ELISA on human MSLN, B cell culture supernatant, 2nd screening.
Assay [4] addresses T1, human CD73. Kind of assay: ELISA on control antigen human CD73, B cell culture supernatant, 2nd screening.
The target of assay [5] is T3, human CA9 (carbonic anhydrase IX) (human, UniProt Q16790 38-414). Kind of assay: BIAcore T100, mAb captured on anti-human IgG, antigen as analyte, 1:1 model; mAb purified by protein A (ProA). Here is the method:
(§1) Antibody concentrations were adjusted to generate 30-40 RU signal when bound to the antigen. […] The sensor surface was washed by injecting HBS-P buffer for 1 min at a flow rate of 50 μL/min. To record the antigen association to the captured mAb, a series of increasing concentrations of antigen was injected for 60 sec at a flow rate of 50 μL/min. The dissociation of antigen was monitored for 30 min at the same flow rate. The sensor surface was regenerated by injecting 3 M MgCl₂ for 1 min and then 30 sec at a flow rate of 30 μL/min. Sensograms were analyzed with Biacore T100 Evaluation Software using a 1:1 Langmuir binding model.
(§2) xi155D5 and the humanized variants were purified by standard protein A chromatography or the decapping method, and their affinity was analyzed using BIAcore (Table 13).

For assay [6], the target named is T3, human CA9 (carbonic anhydrase IX). Kind of assay: BIAcore T100, mAb captured on anti-human IgG, antigen as analyte, 1:1 model; mAb purified by protein A (ProA); protein A (ProA) purified, not decapped. The procedure: as §1, §2
(Surface plasmon resonance follows binding to a sensor surface in real time, without labels.)

The target is the same in assay [7]. Kind of assay: SPR (BIAcore), biotin-CA9 captured on CAP chip, antibody 0-50 nM as analyte. Here is the method:
To determine if chimerization, and therefore the loss of Cys80-Cys171 disulfide bond, results in structural perturbations leading to loss of antigen binding, the binding affinity of mAbs 155D5, xi155D5, 1-55-2, and xi1-55-2 by surface plasmon resonance was evaluated. Biotinylated ligand (biotin-hTEM1 for 1-55-2, biotin-CA9 for 155D5) was captured on a coated biotin CAP BIAcore chip (GE Healthcare, Piscataway, N.J.) using HBS-EP as running buffer. Final antigen capture levels were 130 RU and 280 RU, respectively, for biotin-TEM1 and biotin-CA9. Serial dilutions of antibody (120 μL of 0-50 nM) were passed over the ligand-coated chip. […] The chip surface was regenerated with 6 M GuHCl, 250 mM NaOH. Sensograms were double referenced and kinetic parameters were determined using BIAEvaluations software (ver. 4.1).

What is called Kd is the free concentration of one partner at which half of the binding sites on the other are occupied at equilibrium, for simple one-to-one binding. For orientation: koff means the rate constant with which the complex falls apart. A higher koff goes with fast dissociation. What is called kon is the second-order rate constant of association. A low value points to slow association.

T2 sequence (Q13421 other isoform, or with tags, fused parts or gaps limits assumed, form in doubt): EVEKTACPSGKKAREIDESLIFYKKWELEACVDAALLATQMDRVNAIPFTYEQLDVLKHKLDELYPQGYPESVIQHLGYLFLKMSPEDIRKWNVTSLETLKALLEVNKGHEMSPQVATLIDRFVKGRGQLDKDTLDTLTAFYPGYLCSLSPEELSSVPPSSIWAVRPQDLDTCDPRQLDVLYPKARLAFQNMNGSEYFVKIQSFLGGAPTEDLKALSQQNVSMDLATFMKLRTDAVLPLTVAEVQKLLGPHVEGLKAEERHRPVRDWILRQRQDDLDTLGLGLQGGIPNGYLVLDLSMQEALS

B1: 178F16 (rabbit anti-MSLN mAb) (antibody, V domains shown)
VH: QSLEESGGRLVTPGTPLTLTCTASGFSLSNYAMTWVRQAPGKGLEYIGIISTGGITYYMDSAKGRFTISRTSTTVDLKMTSLTTEDTATYFCGRNAGGSYIFYYFDLWGQGTLVTVSS
VL: AFELTQTPSSVEAAVGGTVTIKCQASQSIYSYLAWYQQKPGQPPKLLIYSASTLASGVSSRFRGSGSGTEYILTISDLECADAATYYCQTYYDIVTSTFGGGTEVVVK
Consider B1, for which the binding result in the assay with human CD73 [1] is recorded as “no binding”. Besides, the “Optical Density (Anti-MSLN reactivity, 1st screening)” value with human MSLN (mesothelin) [2] was determined as 0.966 OD. Besides, the “Optical Density (Anti-MSLN reactivity, 2nd screening)” value in the assay with human MSLN (mesothelin) [3] worked out at 1.88 OD. In addition, the “Optical Density (Anti-CD73 reactivity, 2nd screening)” value in the assay with human CD73 [4] came to 0.141 OD.

B2: 324O5 (rabbit anti-MSLN mAb) (antibody, V domains shown)
VH: QSLEESGGRLVTPGTPLTLTCTASGFSLSNYAMTWVRQAPGKGLEYIGIISTGGITYYMDSAKGRFTISRTSTTVDLKMTSLTTEDTATYFCGRNAGGSYIFYYFDLWGQGTLVTVSS
VL: AFELTQTPSSVEAAVGGTVTIKCQASQSIYSYLAWYQQKPGQPPKLLIYSASTLASGVSSRFRGSGSGTEYTLTISDLECADAATYYCQTYYDIVTSTFGGGTEVVVK
For B2, the binding result with human CD73 [1] was “no binding”. Besides, the “Optical Density (Anti-MSLN reactivity, 1st screening)” value with human MSLN (mesothelin) [2] amounted to 1.4 OD. Further, the “Optical Density (Anti-MSLN reactivity, 2nd screening)” value in the assay with human MSLN (mesothelin) [3] amounted to 2.22 OD. In the assay with human CD73 [4], the “Optical Density (Anti-CD73 reactivity, 2nd screening)” value was 0.0801 OD.

B3: 383I18 (rabbit anti-MSLN mAb) (antibody, V domains shown)
VH: QSVEESGGRLVTPGTPLTLTCTVSGFSLSSYAMGWVRQAPGEGLEWIGTISTGGITYYASWAKGRFTISKTSTTVDLKITSPTTEDTATYFCARVGSSGYLFYFFNLWGQGTLVTVSS
VL: VFELTQTPSPVSAAVGGTVTIRCQASQNIKSYLAWYQQKPGQPPKLLIYEASILASGVSSRFKGSGSGTEFTLTISDLECADAATYYCQSYYAASSNAFGGGTEVVVK
Consider B3, for which the binding result with human CD73 [1] is listed as “no binding”. The “Optical Density (Anti-MSLN reactivity, 1st screening)” value with human MSLN (mesothelin) [2] worked out at 0.249 OD. Further, in the assay with human MSLN (mesothelin) [3], the “Optical Density (Anti-MSLN reactivity, 2nd screening)” value came to 0.296 OD. In addition, the “Optical Density (Anti-CD73 reactivity, 2nd screening)” value with human CD73 [4] came out at 0.0744 OD.

B4: xi155D5 (rabbit/human chimerized 155D5 mAb) (antibody, human IgG1, kappa, V domains shown)
VH: QSVKESGGRLVTPGTPLTLTCTVSGFSLNSYAMIWVRQAPGEGLEYIGFITTGGTTYYASWAKGRFTISRTSTTVDLKLTRPTTEDTATYFCARDRVKSYDDYGDLDAFEPWGPGTLVTISS
VL: ELVMTQTPSSVSAAVGGTVTINCQASQSISSYLAWYQQKPGQPPKLLIYYASTLASGVPSRFKGSGSGTEFTLTITGVQCDDAATYYCLGVYGYSFDDGIAFGGGTELEIKR
notes: Human IgG1 kappa constant regions; Unpaired Cys80 of the light chain is capped by a free cysteine after plain protein A purification; also called xi155D5 mAb
For the molecule B4, in assay [5], the Kd was determined as 0.324 nM and the koff came out at 0.000149 s⁻¹. The same molecule yielded a kon in assay [6] of 458000 M⁻¹ s⁻¹. In assay [7], this molecule displayed a Kd of 0.051 nM, a koff of 2.4e-05 s⁻¹ and a kon of 460000 M⁻¹ s⁻¹.

B5: 237N18 (rabbit anti-MSLN mAb) (antibody, V domains shown)
VH: QSLEESGGRLVAPGTPLTLTCTVSGFSLSSYHMSWVRQAPGEGLEWIGGITAMSRTYYASWAKGRFTISKTSTTVHLKITSPTTEDTATYFCAREPGFVSNIWGPGTLVTVSL
VL: AVVLTQTASPVSGVVGGTVTIKCQASQNIYSNLAWYQQKPGQRPKLLMYDASTLASGVPSRFKGSGSGTQFTLTISDLECADAATYYCQSISSVDNNVFGGGTEVVVK
With B5, the binding result with human CD73 [1] is given as “no binding”. Besides, the “Optical Density (Anti-MSLN reactivity, 1st screening)” value with human MSLN (mesothelin) [2] stood at 0.362 OD. Moreover, the “Optical Density (Anti-MSLN reactivity, 2nd screening)” value with human MSLN (mesothelin) [3] amounted to 0.668 OD. For the same molecule, the “Optical Density (Anti-CD73 reactivity, 2nd screening)” value with human CD73 [4] was 0.0918 OD.

B6: 33O11 (rabbit anti-MSLN mAb) (antibody, V domains shown)
VH: QSVEESGGRLVTPGTPLTLTCTVSGISLSSDAISWVRQAPGKGLEYIGIINGGGNTYYASWAKGRFTISKTSTTVDLKITSPTTEDTATYFCARGIQHGGGNSDYYYYGMDLWGPGTLVTVSS
VL: EVLMTQTPSSVSAAVGDTVTIKCQASQSISSVLSWYQQKPGQPPKLLIYLASTLASGVPSRFSGSRSGTEFTLTISDLECDDAATYYCQTNYGTSSSNYGFAFGGGTEVVVK
As for B6, the binding result with human CD73 [1] is “no binding”. In addition, the “Optical Density (Anti-MSLN reactivity, 1st screening)” value in the assay with human MSLN (mesothelin) [2] came to 0.282 OD. The “Optical Density (Anti-MSLN reactivity, 2nd screening)” value in the assay with human MSLN (mesothelin) [3] is 0.504 OD. Also, in the assay with human CD73 [4], the “Optical Density (Anti-CD73 reactivity, 2nd screening)” value was determined as 0.0818 OD.
